Laboratory results taken from patent US20130243746.

Target: recombinant human acid alpha glucosidase (rhGAA), 110 kDa precursor

B1: recombinant Aspergillus oryzae alkaline protease expressed in Yarrowia lipolytica (strains OXYY2184 and OXYY2122), mature form with linker and His tag (protein)
chain: GLTTQKSAPWGLGSISHKGQQSTDYIYDTSAGEGTYAYVVDSGVNVDHEEFEGRASKAYNAAGGQHVDSIGHGTHVSGTIAGKTYGIAKKASILSVKVFQGESSSTSVILDGFNWAANDIVSKKRTSKAAINMSLGGGYSKAFNDAVENAFEQGVLSVVAAGNENSDAGQTSPASAPDAITVAAIQKSNNRASFSNFGKVVDVFAPGQDILSAWIGSSSATNTISGTSMATPHIVGLSLYLAALENLDGPAAVTKRIKELATKDVVKDVKGSPNLLAYNGNASGGGHHHHHHHHHH
- processing of the 110 kDa rhGAA precursor in culture supernatant of the co-expressing strain OXYY2122 (SDS-PAGE and immunoblot): This processing was complete; no 110 kDa form was detected
- proteolysis of rhGAA to the 95 kDa form (weight:weight ratio 200:1 total protein:protease, 16 h at 30 C; SDS-PAGE): resulted in a full proteolysis to the 95 kDa product
